# Experimental data published in US20190375831A1 (US Dept. of Health and Human Services, published 2019).
# How the values were obtained:
# [1] = biological target: T1, recombinant PfCSP (rPfCSP, residues 21-375) (Plasmodium falciparum, UniProt P19597 21-375); assay: ELISA on coated rPfCSP, OD405nm
# T1 construct: also called recombinant wild type PfCSP; not shown: C-terminal Avi-tag, HRV3C-processing tag and His-purification tag
# [2] = biological target: T1, recombinant PfCSP (rPfCSP, residues …); assay: ITC, first binding event
# [3] = biological target: T1, recombinant PfCSP (rPfCSP, residues …); assay: ITC, second binding event
# [4] = biological target: T2, PfCSP on P. falciparum sporozoites (PfSPZ) (Plasmodium falciparum, UniProt P19597 19-374); assay: ELISA on coated PfSPZ, OD405nm
# [5] = biological target: T1, recombinant PfCSP (rPfCSP, residues …); assay: biolayer interferometry, biotinylated CSP on the sensor, whole IgG in solution; apparent KD
# [6] = biological target: T1, recombinant PfCSP (rPfCSP, residues …); assay: ITC, one binding event
# [7] = biological target: T1, recombinant PfCSP (rPfCSP, residues …); assay: ITC, mAb injected into rPfCSP, one set of sites (Kd = 51 nM)
# [8] = biological target: T1, recombinant PfCSP (rPfCSP, residues …); assay: ITC, mAb injected into rPfCSP, one set of sites (Kd = […] nM)
# [9] = biological target: T2, PfCSP on P. falciparum sporozoites …; assay: immunofluorescence assay on PfSPZ
# [10] = biological target: T1, recombinant PfCSP (rPfCSP, residues …); assay: ITC, mAb injected into rPfCSP, one set of sites (Kd = […] nM)
# [11] = biological target: T1, recombinant PfCSP (rPfCSP, residues …); assay: ITC, CIS43 Fab injected into rPfCSP, two sets of sites, first set
# [12] = biological target: T1, recombinant PfCSP (rPfCSP, residues …); assay: ITC, CIS43 Fab injected into rPfCSP, two sets of sites, second set
# T2 sequence (P19597 19-374 limits assumed): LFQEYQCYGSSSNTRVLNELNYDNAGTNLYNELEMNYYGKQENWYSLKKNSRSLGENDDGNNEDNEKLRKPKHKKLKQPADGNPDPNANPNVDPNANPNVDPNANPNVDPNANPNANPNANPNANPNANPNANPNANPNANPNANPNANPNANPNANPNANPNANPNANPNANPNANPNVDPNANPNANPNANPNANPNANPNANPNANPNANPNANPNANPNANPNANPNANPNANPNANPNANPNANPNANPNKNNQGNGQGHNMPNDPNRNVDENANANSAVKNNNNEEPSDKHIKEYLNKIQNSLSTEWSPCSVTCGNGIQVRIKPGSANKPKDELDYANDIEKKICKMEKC
# T1 sequence (P19597 21-375): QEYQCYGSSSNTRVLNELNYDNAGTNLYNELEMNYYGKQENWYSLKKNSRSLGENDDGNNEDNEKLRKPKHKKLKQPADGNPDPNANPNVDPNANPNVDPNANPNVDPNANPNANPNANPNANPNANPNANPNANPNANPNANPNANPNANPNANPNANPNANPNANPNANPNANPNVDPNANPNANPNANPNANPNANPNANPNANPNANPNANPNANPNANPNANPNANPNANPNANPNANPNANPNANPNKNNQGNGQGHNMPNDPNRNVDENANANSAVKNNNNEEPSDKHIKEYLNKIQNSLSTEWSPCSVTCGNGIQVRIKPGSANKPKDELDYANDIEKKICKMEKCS
binder,measurement,setting,value
"CIS06 (antibody, V domains shown, also called mAb CIS06) VH: QVQLVQSGPEVKKPGTSVKVSCKASGFTFSSSAVQWVRQARGQRLEWIGWIVVGSGKTKYAQNFQQRVTITRDMSTSTAYLELSTLRSEDTAVYYCAAVVNWNDESGFDPWGQGTLVTVSS VL: DIQMTQSPSSLSAFVGDRVTITCRASQSIGTYLNWYQQKVGQAPKLLIYTASSLRSGVPSRFSGSGSGTDFTLTITSLQPEDFATYYCQQSYSTYTFGQGTKLEIK",EC50 (read off the curve),[1],~100 ng/mL
"mAb CIS34 (antibody, human IgG1, kappa, V domains shown) VH: QVQLVESGGGVVQPGRSLRLSCAASGFTFSSYGIHWVRQAPGKGLEWVAVIWYDGSKKYYGDSVKGRFTISRDNSKNTLYLQMNSLRVEDTAVYYCARAVIAATGTRGYWFDPWGQGTLVTVSS VL: DIIMTQSPVSLSASVGDRVTITCRASQSISSHLNWYQQKPGKAPKLLIYAASSLQSGVPSRFSGSGSGTDFTLTISSLQPEDFATYSCQQTYRGFTFAPGTKVDIKR",Kd,[2],31 nM
same,Kd,[3],80 nM
same,binding result,[4],binds
same,EC50 (read off the curve),[1],~3 ng/mL
same,Kd,[5],1.5 nM
"mAb CIS42 (antibody, V domains shown) VH: QVQLVQSGSELKKPGASVKVSCKTSGYTFTTYAMNWVRQAPGQGLEWMGWINTNTGNPTYAPGFTGRFVFSFDTSVSTAYLQISSLKAEDTAVYYCARVYSYGVPFDYWGQGTLVTVSS VL: QSVLTQPASVSGSPGQSITISCTATSSNVGSFNLVSWYQHHPGKAPKLIIHEVSKRPSGASNRFSGSKSGNTASLTISGLQAEDEADYYCCSYVGSDTWVFGGGTKLTVL",Kd,[6],51 nM
same,binding result,[4],binds
same,EC50 (read off the curve),[1],~5 ng/mL
same,-TΔS,[7],12.8 kcal/mol
same,ΔG,[7],-9.9 kcal/mol
same,ΔH,[7],-22.7 kcal/mol
same,Kd,[5],0.76 nM
"mAb CIS23 (antibody, V domains shown) VH: EVQLVESGGGVVQPGRSLRLSCAASGFTFSSYGMYWVRQAPGKGLEWVALISHDGSNKFYADSVKGRFTISRDNSKNTLYLQMNSLRAEDTAVYYCAKDLGYSSSWGYFDYWGQGTLVTVSS VL: EIVLTQSPATLSLSPGERATLSCRASQSVSSYLAWYQQKPGQAPRLLIYDASNRATGIPARFSGSGSGTDFTLTISSLEPEDFAVYYCQQRSNWYTFGQGTKLEIK",binding result,[4],binds
same,-TΔS,[8],13.1 kcal/mol
same,ΔG,[8],-10.4 kcal/mol
same,ΔH,[8],-23.5 kcal/mol
"CIS04 (antibody, V domains shown, also called mAb CIS04) VH: QVQLVQSGAEVKKPGASVKVSCKASGYTFTSYAIHWVRQAPGQRLEWMGWIKAGNGDTRYSQKFQGRVTITRDTSATTAYMELSSLRSEDTAVYYCGLLTVLTPDDAFDIWGQGTMVTVSS VL: not shown",binding result,[9],binds
"mAb10 (antibody, human IgG1, kappa, V domains shown) VH: EVQLVESGGGVVQPGRSLRLSCEASGFTFSTYGMHWVRQAPGKGLEWVAIIWHDGSKKYHADSVRGRFTISRDNSKNTLYLQMNSLRAEDTAVYFCARVGNYGGDWGAGFDYWGQGTLVTVSS VL: DIQMTQSPSFLSASVGDRVTIACRASQSISSWLAWYQQKPGKAPKLLIYHASSLESGVPSRFSGSASGTEFALTISSLQPDDFATYYCQQYSSYWTFGQGTKVEIKR",-TΔS,[10],22.7 kcal/mol
same,ΔH,[10],-33 kcal/mol
"CIS43 Fab (Fab, V domains shown) VH: QVQLVQSGAEVKKPGASVKVSCKASGYTFTSYAIHWVRQAPGQRLEWMGWIKAGNGNTRYSQKFQDRVTITRDTSTTTAYMELSSLRSEDTAVYYCALLTVLTPDDAFDIWGQGTMVTVSS VL: not shown",-TΔS1,[11],12 kcal/mol
same,Kd,[11],16 nM
same,ΔG1,[11],-10.6 kcal/mol
same,ΔH1,[11],-22.6 kcal/mol
same,-TΔS2,[12],-4.3 kcal/mol
same,Kd,[12],250 nM
same,ΔG2,[12],-9 kcal/mol
same,ΔH2,[12],-4.7 kcal/mol
